B1: WT 1-5 (antibody, from another filing)
heavy: QVRLQESGPSQVKPAQTLSLTCAISGPSLTTYYLDWVRHTPGKPPEWLAQMTKDANAVHNPTVRSRLSITRDTSKSQVFLKLTGVTTEDTAVYYCVKGLIDFGPGLLVTVSSASTTPPKVYPLTSCCGDTSSSIVTLGCLVSSYMPEPVTVTWNSGALTSGVHTFPAILQSSGLYSLSSVVTVPASTSGAQTFICNVAHPASSTKVDKRVEPGCPDPCKHCRCPPPELPGGPSVFIFPPKPKDTLTISGTPEVTCVVVDVGQDDPEVQFSWFVDNVEVRTARTKPREEQFNSTFRVVSALPIQHQDWTGGKEFKCKVHNEGLPAPIVRTISRTKGQAREPQVYVLAPPQEELSKSTLSVTCLVTGFYPDYIAVEWQKNGQPESEDKYGTTTSQLDADGSYFLYSRLRVDKNSWQEGDTYACVVMHEALHNHYTQKSISKPPGK
light: QAVLTQPSSVSRSLGQTVSITCSGSSDQVGPGDYLNWFQLIPGSAPKTLIFAASSRIRGVPDRFSGSRSGNTATLTINSLQAEDEADYYCGSANSRNYVWGSGTRLTVLSQPKSAPSVTLFPPSKEELDTNKATVVCLISDFYPGSVNVVWKADGSTINQNVKTTQASKQSNSKYAASSYLTLTGSEWKSKSSYTCEVTHEGSTVTKTVKPSECS
B2: WT 1-4 (antibody, from another filing)
heavy: QVRLQESGPSQVKPAQTLSLTCAISGPSVTTYYVDWVRHTPGKPPEWLAQMTKDANAVHQPTLRSRLSITRDTSKSQVFLKLTGVTTEDTAVYYCVKGVIDFGPGLLVTVSSASTTPPKVYPLTSCCGDTSSSIVTLGCLVSSYMPEPVTVTWNSGALTSGVHTFPAILQSSGLYSLSSVVTVPASTSGAQTFICNVAHPASSTKVDKRVEPGCPDPCKHCRCPPPELPGGPSVFIFPPKPKDTLTISGTPEVTCVVVDVGQDDPEVQFSWFVDNVEVRTARTKPREEQFNSTFRVVSALPIQHQDWTGGKEFKCKVHNEGLPAPIVRTISRTKGQAREPQVYVLAPPQEELSKSTLSVTCLVTGFYPDYIAVEWQKNGQPESEDKYGTTTSQLDADGSYFLYSRLRVDKNSWQEGDTYACVVMHEALHNHYTQKSISKPPGK
light: QAVLTQPSSVSRSLGQTVSITCSGSSDQVGPGDYVNWFQLIPGSAPKTLIFAATSRIRGVPDRFSGSRSGNTATLTINSLQAEDEADYYCGSGNSRGGYVWGSGTRLTVLSQPKSAPSVTLFPPSKEELDTNKATVVCLISDFYPGSVNVVWKADGSTINQNVKTTQASKQSNSKYAASSYLTLTGSEWKSKSSYTCEVTHEGSTVTKTVKPSECS
B3: WT 1-6 (antibody, from another filing, V domains shown)
VH: QVRLQESGPSQVKPAQTLSLTCAISGPSITTYYVDWVRHTPGKPPEWLAQMTKDANAVHQPTIRSRLSITRDTSKSQVFLKLTGVTTEDTAVYYCVKGLIDWGPGLLVTVSS
V domain: QAVLTQPSSVSRSLGQTVSITCSGSSDQVGPGDYLNWFQLIPGSAPKTLIFAASSRLRGVPDRFSGSRSGNTATLTINSLQAEDEADYYCGSANSRGGYVWGSGTRLTVLS
B4: WT 1-7 (antibody, from another filing, V domains shown)
VH: QVRLQESGPSQVKPAQTLSLTCAISGPSVTTYYLDWVRHTPGKPPEWLAQMTKDANAVHQPTVRSRLSITRDTSKSQVFLKLTGVTTEDTAVYYCVKGVIDWGPGLLVTVSS
V domain: QAVLTQPSSVSRSLGQTVSITCSGSSDNVGPGDYINWFQLIPGSAPKTLIFAAYSRLRGVPDRFSGSRSGNTATLTINSLQAEDEADYYCGSGNSRGGYVWGSGTRLTVLS
B5: WT 1-8 (antibody, from another filing, V domains shown)
VH: QVRLQESGPSQVKPAQTLSLTCAISGPSLTTYYVDWVRHTPGKPPEWLAQMTKDANAVHQPTVRSRLSITRDTSKSQVFLKLTGVTTEDTAVYYCVKGIIDWGPGLLVTVSS
V domain: QAVLTQPSSVSRSLGQTVSITCSGSSDNVGPGDYINWFQLIPGSAPKTLIFAAYSRVRGVPDRFSGSRSGNTATLTINSLQAEDEADYYCGSPNSRNYVWGSGTRLTVLS
B6: WT 1-9 (antibody, from another filing, V domains shown)
VH: QVRLQESGPSQVKPAQTLSLTCAISGPSVTTYYIDWVRHTPGKPPEWLAQMTKDANAVHQPTLRSRLSITRDTSKSQVFLKLTGVTTEDTAVYYCVKGLIDWGPGLLVTVSS
V domain: QAVLTQPSSVSRSLGQTVSITCSGSSDNVGPGDYVNWFQLIPGSAPKTLIFAAYSRLRGVPDRFSGSRSGNTATLTINSLQAEDEADYYCGSGNSRGGYVWGSGTRLTVLS
B7: WT 1-1 (antibody, from another filing, V domains shown)
VH: QVRLQESGPSQVKPAQTLSLTCAISGPSVTTYYIDWVRHTPGKPPEWLAQMTKDANAVHNPTIRSRLSITRDTSKSQVFLKLTGVTTEDTAVYYCVKGVIDWGPGLLVTVSS
V domain: QAVLTQPSSVSRSLGQTVSITCSGSSDNVGPGDYINWFQLIPGSAPKTLIFAAYSRIRGVPDRFSGSRSGNTATLTINSLQAEDEADYYCGSANSRNYVWGSGTRLTVLS
B8: WT 1-2 (antibody, from another filing, V domains shown)
VH: QVRLQESGPSQVKPAQTLSLTCAISGPSLTTYYIDWVRHTPGKPPEWLAQMTKDANAVHQPTLRSRLSITRDTSKSQVFLKLTGVTTEDTAVYYCVKGVIDWGPGLLVTVSS
V domain: QAVLTQPSSVSRSLGQTVSITCSGSSDNVGPGDYLNWFQLIPGSAPKTLIFAASSRIRGVPDRFSGSRSGNTATLTINSLQAEDEADYYCGSPNSRNYVWGSGTRLTVLS

In the experiment the target is 重组NT抗原(自产，130410) (human) (UniProt P16860). The experiment can be described thus: BLI, antibody captured on AMC sensor, antigen in solution.
UniProt P16860, sequence (P16860 27-102): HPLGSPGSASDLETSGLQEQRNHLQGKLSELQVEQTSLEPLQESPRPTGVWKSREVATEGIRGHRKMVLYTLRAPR
As a reminder, the Kd is a measure of binding affinity in units of concentration. For the molecule B1, the Kd is 5.31 nM. In other words, the single-digit nanomolar range.

As for B2, the Kd amounted to 9.63 nM.

With B3, the equilibrium dissociation constant (Kd) was determined as 5.25 nM.

B4 gave an equilibrium dissociation constant (Kd) of 6.76 nM.

For B5, the Kd came to 8.36 nM. The Kd values of the last two molecules are within 1.5-fold of each other.

With B6, the Kd was 7.55 nM.

Consider B7, for which the Kd came out at 6.25 nM.

B8 returned a Kd of 6.74 nM.
